Key:
soybean plantlets = assay: High-throughput soybean screening for herbicide tolerance (plantlets); type: in vivo, soybean (A3555); design: key: 0 for poor tolerance, high damage, low green coloration; 1 for some tolerance, average damage, moderate green coloration; 2 for good tolerance, low damage, high green coloration; settings: S-3100 spray five weeks post-transformation, scored day four
From the text: A high-throughput plant transformation and screening method was used to evaluate large numbers of constructs in transgenic plants for herbicide tolerance in early transformation plantlet tissue. This allowed for faster and higher volume screening of construct configurations and PPO enzymes.
This permitted the side-by-side comparison of seven different HemG PPO enzymes with thirty-seven different targeting peptides using the same promoter and 3′UTR elements for gene expression. These plant transformation constructs were used to transform soybean excised embryos (germplasm A3555) using A. tumefaciens and standard methods known in the art. Four hundred explants were inoculated for each construct resulting in twelve containers per construct. A sterile PPO herbicide solution was used for herbicide tolerance testing. The herbicide solution consisted of 0.3 g of S-3100 in crop oil concentrate (5.0 mL) and 495 mL of deionized water. This was filtered through a 0.45 micron Nalgene® Rapid-Flow™ Tissue Culture Filter Unit and Surfactant-Free Cellulose Acetate membrane filter unit (VWR, Radnor, PA, USA). The resulting sterile solution was shaken before application.
At five weeks post-transformation, four of the twelve plant containers per construct were sprayed with two passes of the sterile PPO herbicide solution. The treated plantlets were then enclosed in the container and received at least 15 hours of light exposure post spray each day for four days. At the end of day four post application of S-3100, the treated plantlets were photographed and scored on a visual scale of green coloration (green coloration was representative of healthy photosynthetic plant tissue as compared to photo-bleached tissue) versus damage. The scoring values were 0 for poor tolerance, high damage, low green coloration; 1 for some tolerance, average damage, moderate green coloration; and 2 for good tolerance, low damage, high green coloration. The scoring for each construct is presented in Table 9, where n.d. indicates the analysis was not conducted.

R0 soybean plants = assay: R0 transgenic soybean herbicide tolerance at eleven weeks; type: in vivo; settings: R0 plants sprayed with S-3100 at eleven weeks, rated seven days after treatment
Method: The plantlets in the non-sprayed containers corresponding to constructs having a score of 2 were transplanted at approximately 7 weeks post transformation and grown as R0 plants using standard methods known in the art. Plantlets corresponding to non-tolerant scores of 0 and 1 were also grown to serve as negative controls. The R0 plants were grown in a greenhouse under long-day nursery conditions (18 hr light at 80° F. then 6 hr dark at 74° F.) for approximately four weeks. At eleven weeks, the R0 plants were sprayed with two passes of the same herbicide solution (0.3 g of 5-3100) described above. Herbicide injury ratings were collected seven days after treatment.
The results of the herbicide tolerance application at eleven weeks to the R0 plants confirmed the low percent injury rating scores observed in the high-throughput screen at five weeks. Any injury rating of 30% or above was equivalent to non-transgenic soybean injury ratings. A few of the constructs stood out as providing very good tolerance to the herbicide application. […] Data are provided in Table 10, where n.d. indicates the analysis was not conducted.

B1: H_N30: microbial HemG protoporphyrinogen oxidase, SEQ ID NO:5 (SEQ ID NO:14 lacking start methionine) (protein, listed as Erwinia toletana)
chain: MKALILFSSREGQTREIASYIANSIKEEMECDVFNILRVEQIDWSQYDRVLIGGSIHYGHFHPAVAKFVKRHLHELQQRSSGFFCVNLTARKADKRTPQTNAYMRKFLLQSPWQPDCCAVFAGALRYTRYRWFDRVMIQLIMRMTGGETDTSKEVEYTDWTQVARFAQEFAHLPGKTQ
Soybean plantlets; TP9
  coloration score: 1
Soybean plantlets; TP10
  coloration score: 0
Soybean plantlets; TP11
  coloration score: 1
Soybean plantlets; TP12
  coloration score: 1
Soybean plantlets; TP13
  coloration score: 1
Soybean plantlets; TP15
  coloration score: 1
Soybean plantlets; TP17
  coloration score: 1
Soybean plantlets; TP18
  coloration score: 0
Soybean plantlets; TP19
  coloration score: 0
Soybean plantlets; TP24
  coloration score: 1
Soybean plantlets; TP26
  coloration score: 0
Soybean plantlets; TP27
  coloration score: 0
Soybean plantlets; TP28
  coloration score: 0
Soybean plantlets; TP29
  coloration score: 1
Soybean plantlets; TP33
  coloration score: 1
R0 soybean plants; TP1
  percent injury score: 5%
R0 soybean plants; TP9
  percent injury score: 35%
R0 soybean plants; TP11
  percent injury score: 35%
R0 soybean plants; TP15
  percent injury score: 35%
R0 soybean plants; TP26
  percent injury score: 35%

B2: H_N50: microbial HemG protoporphyrinogen oxidase, SEQ ID NO:7 (SEQ ID NO:16 lacking start methionine) (protein, listed as Shimwellia blattae)
chain: MKTLILFSTRDGQTHKIARHIAGVLEEQGKACELVDLLQPGEPDWSTVECVVLGASIRYGHFHKSFIRFVNTHAQRLNNMPGALFTVNLVARKPEKQSPQTNSYTRKFLAASPWQPQRCQVFAGALRYPRYSWYDRMMIRLIMKMAGGETDTRKEVEYTDWQSVTRFAREIAQLPGETR
Soybean plantlets; TP9
  coloration score: 1
Soybean plantlets; TP10
  coloration score: 1
Soybean plantlets; TP11
  coloration score: 0
Soybean plantlets; TP12
  coloration score: 1
Soybean plantlets; TP13
  coloration score: 1
Soybean plantlets; TP14
  coloration score: 1
Soybean plantlets; TP15
  coloration score: 2
Soybean plantlets; TP16
  coloration score: 0
Soybean plantlets; TP17
  coloration score: 1
Soybean plantlets; TP18
  coloration score: 1
Soybean plantlets; TP19
  coloration score: 0
Soybean plantlets; TP21
  coloration score: 1
Soybean plantlets; TP22
  coloration score: 2
Soybean plantlets; TP23
  coloration score: 1
Soybean plantlets; TP24
  coloration score: 1
Soybean plantlets; TP25
  coloration score: 2
Soybean plantlets; TP26
  coloration score: 1
Soybean plantlets; TP27
  coloration score: 1
Soybean plantlets; TP28
  coloration score: 1
Soybean plantlets; TP29
  coloration score: 1
Soybean plantlets; TP30
  coloration score: 1
Soybean plantlets; TP31
  coloration score: 0
Soybean plantlets; TP32
  coloration score: 1
Soybean plantlets; TP33
  coloration score: 1
Soybean plantlets; TP34
  coloration score: 0
Soybean plantlets; TP36
  coloration score: 0
Soybean plantlets; TP37
  coloration score: 0
R0 soybean plants; TP9
  percent injury score: 40%
R0 soybean plants; TP13
  percent injury score: 40%
R0 soybean plants; TP14
  percent injury score: 40%
R0 soybean plants; TP15
  percent injury score: 40%
R0 soybean plants; TP17
  percent injury score: 40%
R0 soybean plants; TP22
  percent injury score: 40%
R0 soybean plants; TP25
  percent injury score: 35%

B3: H_N100: microbial HemG protoporphyrinogen oxidase, SEQ ID NO:9 (SEQ ID NO:17 lacking start methionine; variant 20) (protein, listed as Enterobacter cloacae)
chain: MKTLILFSTRDGQTREIAAFLASELKEQGIYADVINLNRTEEIAWQEYDRVVIGASIRYGHFHPAVDRFVKKHTETLNSLPGAFFSVNLVARKAEKRTPQTNSYTRKFLLNSPWKPAACAVFAGALRYPRYRWYDRFMIRLIMKMTGGETDTRKEVVYTDWSQVASFAREIVQLTRSSRL
Soybean plantlets; TP9
  coloration score: 0
Soybean plantlets; TP10
  coloration score: 1
Soybean plantlets; TP11
  coloration score: 0
Soybean plantlets; TP12
  coloration score: 2
Soybean plantlets; TP13
  coloration score: 0
Soybean plantlets; TP14
  coloration score: 1
Soybean plantlets; TP15
  coloration score: 2
Soybean plantlets; TP16
  coloration score: 1
Soybean plantlets; TP17
  coloration score: 1
Soybean plantlets; TP18
  coloration score: 1
Soybean plantlets; TP19
  coloration score: 1
Soybean plantlets; TP20
  coloration score: 2
Soybean plantlets; TP21
  coloration score: 0
Soybean plantlets; TP22
  coloration score: 2
Soybean plantlets; TP23
  coloration score: 2
Soybean plantlets; TP24
  coloration score: 0
Soybean plantlets; TP25
  coloration score: 1
Soybean plantlets; TP27
  coloration score: 1
Soybean plantlets; TP28
  coloration score: 1
Soybean plantlets; TP29
  coloration score: 1
Soybean plantlets; TP30
  coloration score: 1
Soybean plantlets; TP31
  coloration score: 1
Soybean plantlets; TP32
  coloration score: 2
Soybean plantlets; TP33
  coloration score: 1
Soybean plantlets; TP34
  coloration score: 0
Soybean plantlets; TP35
  coloration score: 1
Soybean plantlets; TP36
  coloration score: 1
R0 soybean plants; TP10
  percent injury score: 35%
R0 soybean plants; TP12
  percent injury score: 50%
R0 soybean plants; TP15
  percent injury score: 30%
R0 soybean plants; TP20
  percent injury score: 35%
R0 soybean plants; TP22
  percent injury score: 30%
R0 soybean plants; TP23
  percent injury score: 35%
R0 soybean plants; TP28
  percent injury score: 35%
R0 soybean plants; TP29
  percent injury score: 40%
R0 soybean plants; TP32
  percent injury score: 40%
R0 soybean plants; TP35
  percent injury score: 35%

B4: H_N20: microbial HemG protoporphyrinogen oxidase, SEQ ID NO:2 (SEQ ID NO:12 lacking start methionine) (protein, listed as Pantoea ananatis)
chain: MKALILFSTRDGQTQKIASAIADEIKGQQSCDVINIQDAKTLDWQQYDRVLIGASIRYGHFQPVVNEFVKHNLLALQQRVSGFFSVNLTARKPEKRSPETNAYTVKFLAQSPWQPDCCAVFAGALYYPRYRWFDRVMIQFIMRMTGGETDASKEVEYTDWQQVQRFARDFAQLPGKSY
Soybean plantlets; TP9
  coloration score: 1
Soybean plantlets; TP11
  coloration score: 1
Soybean plantlets; TP12
  coloration score: 2
Soybean plantlets; TP13
  coloration score: 2
Soybean plantlets; TP14
  coloration score: 0
Soybean plantlets; TP15
  coloration score: 1
Soybean plantlets; TP16
  coloration score: 1
Soybean plantlets; TP17
  coloration score: 2
Soybean plantlets; TP18
  coloration score: 1
Soybean plantlets; TP19
  coloration score: 1
Soybean plantlets; TP20
  coloration score: 2
Soybean plantlets; TP21
  coloration score: 0
Soybean plantlets; TP22
  coloration score: 1
Soybean plantlets; TP23
  coloration score: 1
Soybean plantlets; TP24
  coloration score: 1
Soybean plantlets; TP25
  coloration score: 1
Soybean plantlets; TP26
  coloration score: 1
Soybean plantlets; TP27
  coloration score: 1
Soybean plantlets; TP28
  coloration score: 1
Soybean plantlets; TP29
  coloration score: 1
Soybean plantlets; TP30
  coloration score: 1
Soybean plantlets; TP31
  coloration score: 1
Soybean plantlets; TP32
  coloration score: 0
Soybean plantlets; TP33
  coloration score: 1
R0 soybean plants; TP12
  percent injury score: 20%
R0 soybean plants; TP13
  percent injury score: 20%
R0 soybean plants; TP15
  percent injury score: 30%
R0 soybean plants; TP17
  percent injury score: 25%
R0 soybean plants; TP20
  percent injury score: 20%
R0 soybean plants; TP29
  percent injury score: 30%
